A short description of the series: label from the status in PepcDB records.

As for “MENQEVVLSIDAIQEPEQIKFNMSLKNQSERAIEFQFSTGQKFELVVYDSEHKERYRYSKEKMFTQAFQNLTLESGETYDFSDVWKEVPEPGTYEVKVTFKGRAENLKQVQAVQQFEVK”, the protein production entry is listed as “not failed”.

On to “MENRRIVIITGANSGIGKEAAQRFANEGDHVIMACRNIAFSRKVQHDIIAASGNDHVDLLELDVSSFASIRTFCTTFNSQYKRLDILIHNAAYFNHGEPYRLSPDGIELTFATNVFGPYLLTSLLRDRLKQSEDPRILHAGSNIIKHFFDPKQTFDLDLLQGNHGTKSYSVYKMYCQSKMALMLLTFQMAEVFADDGIKVNALQINGAKMSKRTIQKVKPWWRPIAWGQNLFFPPPSYMADKYFTICTSDKYKQTTGKLFNDKLEIMEPSPTHYPGFFKQMKLLLGSNVYPAYENTNIREKLWALCKELVGELEHHHHHH”, for which the protein production result is given as “not failed”.

With “MENSFLSSKLVFLLAIALVLFLNTELSFLTAEGASDSNSKVYIVYLGQREHDDPELLTASHHQMLESLLQSKEDAHNSMIYSYQHGFSGFAALLTSSQAKKISEHPEVIHVIPNRILKLKTTRIWDHLGLSPIPTSFSSSSSAKAKGLLHNTSMGSEAIIGVVDSGIWPESKVFNDQGLGPIPKRWRGKCRSGEKFNATMHCNKKLIGAKYYQSGLLAMNGGKFNRIIIRDFKSNRDATGHGTHTATIAGGSFVPNASFYGLARGTVRGGAPRARIASYKACWNVVGWGGICSSADMWKAYDDAIHDQVDVLSVSIGASIPEDSERVDFIAAFHAVAKGITVVAAAGNDGSGAQTICNVAPWLLTVAATTLDRSFPTKITLGNNQTFFGKTILEFDSTHPSSIAGRGVVAVILAKKPDDRPAPDNSYIFTDYEIGTHILQYIRTTRSPTVRISAATTLTGQPATPKVAAFSSRGPNSVSPAILKPDIAAPGVSILAAVSPLDPGAFNGFKLHSGTSMSTPVVSGIIVLLKSLHPKWSPAAMRSALVTTAWRTSPSGEPIFAQGSNKKLADPFDYGGGLVNPEKAAKPGLVYDMGIKDYINYMCSAGYNDSSISRVLGKKTKCPIPKPSMLDINLPSITIPNLEKEVTLTRTVTNVGPIKSVYRAVIESPLGITLTVNPTILVFKSAAKRVLTFSVKAKTSHKVNSGYFFGSLTWTDGVHDVTIPVSVKTTISM”, the protein production result is “failed”.

Consider “MENSLNQNKVWGWGELALMYFPNISQKSATMQLLKWIRVSDELVGQLEKSGWHPGKKYLTPRQKDYIVGHLGEP”, for which the protein production result is on record as “failed”.

As for “MENSTLYIVIAGLWLAVGFGIFLKKLDMPVIIGYICTGTVLAAFFKINDFDLLSDIGEFGIVFLMFMIGIEFNFDKLKSIKQEVLVFGLLQVVLCALIAFLLGYFVLGLSPIFSLVLGMGLSLSSTAIVLKFFEDSKQLSTPMGKSAVGILIFQDIAAIPMLLILTILGSKDSNVNLLILKTFISAGIILVLLLLPGKKGANLILEQAKDTRLPEIFIGTILVIVCSAAGLSHFFGFSMSLGAFIVGMAISKSRYKINVQEEFAQLKNLFLALFFITIGMQINVSFFMEKFFVVIFLLILVMGFKTAIIYALLRFFRDAKTAIKTALSLAQIGEFSFVIFLNSGSHQLFNLQEKKGILGFLHQKNILNIAQNDIHQLLILMVVFSMLATPFILKYLESIAQFILHQKSQENEPAKK”, the protein production result is “failed”.

Consider “MENTAPDVLDAGAAELPVERLKPELADVPNEKEDEDEAVCGGAEGVVELVVELAVLFKKENPVEAENGEAEAFEVLDVDEELKVDTPNGDGEEVVAPDEEDAKRDGVEPAEEDEPKNGEEPVAPKIDGEEPEADEATLKEGDEPVAPKMDDEEPGADEATLKDGVAPVADDGAPKRGDVEVAADEDAPKREELEAEADEGAENKEGEDPKRGVEPLAGAAPNGDDDGVAAEEAGAPNRDDDGVAVEEAEEVTNPKGEEPGAAEEALVVDEPNSDGAGADEEAAVPNPNDGVVEAGVTEAEDPNPNDGVDEEAEEPNPKEGVEEAPNPNDGVVEEAGVDDTEDPKPNPVELGFEDWLKEKDNGEVVDEAEEELVAEEDPNENPPTELD”, for which the protein production entry is “failed”.

On to “MENTVQEARRYLSNAREILSEKAKKNGIYYNDIKYVKLAGRAAYSGVLVALDGLLGKKDTRKSVEWYQEKLGKVDKKALTAFNSAYKILHLSMAYDGIELVSVSKDGLKQAEALINWVETRTAAA”, for which the protein production result is “failed”.

For the sequence “MENVITYNNDKGLLAYIQFLASSAQKIGDGNTDRVFDFEDALDQTQMAQLAVDELKKIPEVNALFSERWLPAPFNLDDLAKLPEGTLGHVYAREMKARGFDPYFYKKVPVVDDISYLKMLWRSTHDIYHVVAGFDTNVFGEIGLQAFFLAQTPIPISVMLLSFGMVMISLYQPTNFKALMTEISRGYRVGSHTPGKLIAQKWDQLWDVQVSEIRERLGVNSIL”, the protein production result is recorded as “not failed”.

As for “MENVSDDRFAEMVWEAVSGGATLKDVHGIPQDMMEGLYAHAYDFYHKGRLDEAETFFRFLCIYDFYNPDYIMGLAAVCQLKKQFQKAVDLYAVAFALSKNDYRPVFFTGQCQLFMRKAAKARQCFELVCEQSGLEHHHHHH”, the protein production result is given as “failed”.

On to “MEPAGPCGFCPAGEVQPARYTCPRCNAPYCSLRCYRTHGTCAENFY”, for which the protein production entry is “not failed”.

Consider “MEPDMTQAFDDDTLRFYRGNATAYAERQPRSATLTKFLGELPAGAKILELGCGAGYQAEAMLAAGFDVDATDGSPELAAEASRRLGRPVRTMLFHQLDAIDAYDAVWAHACLLHVPRDELADVLKLIWRALKPGGLFYASYKSGEGEGRDKLARYYNYPSEEWLRARYAEAGTWASVAVESSEGKGFDQELAQFLHVSVRKPELEHHHHHH”, for which the protein production result was “not failed”.

“MEPVLTTKDLKHNYVDGSAELLRDPELVDPPFQVSRCAGNNRDLQTGQRSSGCVVTEIVYLSDSPYSSLNLVLRYPTTPAYPSRHFFSGLGHQMRMLSKLRFTLRSPLGLRRQPAPPPPLLVRVSLSSEPGVFIKMDLKDPASLLDLAMQCLLKNEPIIIQSLEEIPRELLIPLFCAAFLGGHKKTLTAIVKVWPFFCLHVGKLRSHETHSALLKAMIDGLQVLPAPNSASRGSKLKILDLRQDANCRTTCFPIRTKSPFCFHSCSYTQTSSRKRKGKHSTVNLGSEVQLSRYPTELLVDLSLDGTLRTSTFLSLLLSKVEQSSGALHLCCRDLQVDKLSDYNNTLKLLNLLCIDHLAVDQASLNDINTLLSQMVHLDSLSLSKITLTSLNAKIFKSFLTQLERMDNLQELNLSFFCLTNRLHKLLRVLPHDLDYLNLPFCELSYRDFRFLSQCPQAAHLKLLNLSNNPISWEDCEPLQTLMENVSGTLQHLEINHCLITDSTIFSLLPALSHCSHLRVLSFASNPITMSMLMRVLENLLPLMELKYVIYPIPVHCYERWYFQGTLDRQKLADVQVQLKAMLQAAQRGDMNWITFSE”: the protein production entry is “failed”.

Take “MEPWKQCAQWLIHCKVLPTNHRVTWDSAQVFDLAQTLRDGVLLCQLLNNLRAHSINLKEINLRPQMSQFLCLKNIRTFLTACCETFGMRKSELFEAFDLFDVRDFGKVIETLSRLSRTPIALATGIRPFPTEESINDEDIYKGLPDLIDETLVEDEEDL”: the protein production result is “failed”.

As to “MEQDHVKVKKRVAFVLIDGLGDVTIPKLGYKTPLQAANIPNLDAIASAGINGLMDPVEVGLGCGSDTAHLSLMGYDPRVYYRGRGAFESMGAGLAMSPGDIAFKSNFATLDEKSGVVVSRRADRHFEEEGPILCAALDGLKLQSFPEYEVRVRYATEHRCGVVVKGPRLSGNISGTDPLKDNRLLLEAKPLDESEEATHTAKVVNELSREISRILVSHPVNAERAAQGKNIANLVLLRGCGIRIEVPPFHEKHGLWPCMVAPTKIIAGLGMSLGIDILEAPGATGDYRTLLTSKATAIANALSAPLNPCPNVFVPGEDGHKPGRSDGYDFGFLHIKAIDDAGHDKATMFKVRGLEAVDKAIRQLAKLLWQAESSTHYQYFLCVTGDHSTPVEYGDHSFEPVPFTMCRLRDFVSAVGGESAVLETSLDPFPLPTVVESGEDVTKQEEESGRREAPLAIGGDLVAELNEVAAARGCLGRFHGGEMMGVITNFLNLEV”, the protein production entry is listed as “failed”.

“MEQLIFKQTYKKIEPFILLLNGLLLAAAISIVHIVGMHAYHLFEAASSNVPLITLAFGISAVLSSVAIWLTSRFTLPIFRLILSSVIMGIGISASYYVSMLGWNIDIYKKDYTSFLILFSVLIAMSGSGLAFLLAYKLKESERHRISLKLAFAVMMTLSIMGMHYTALISTNITDKFVSQYQAEHDLLLFTIILVTCLVLVASFIVAVLEQRLNQRNLELRKANKELANLSIQDNLTKLPNRLYLVDYAEVLLSDHRYKDQKIAFLYIDLDRFKSVNDAFGHHIGDQLLIQMANRLHWQLNEKCKLLRIGGDEFLLIAENTDTEEAMQLAEKVLHLIQDSYQISGKEINISASLGIALFPEHGQNVQDLLMNADAAMLMSKEQGRNTYTVFSYSTHQQETRSQSKLINDLYKAVEEKQFVLYYQPKFNTNLEICGVEALIRWNHPSLGMLTPHMFIGGAEKTGLIIPMGYWALEQACQQIQEWERSNTQFYPIAVNLSALQFENKKLFSTLEGLLKKYQIQPHHLIIEITESTAMRHIDLSIRACERLRDMGIRVAIDDFGTGHSSFLYLKDLPVDELKIDRGFIVDLKPGSKEEVILESIIHLAKKLGLTVTAEGVETQQQVEILTRLGCQQFQGYLLGMPVNVGQLIQSQGAHFV”: the protein production entry was “failed”.

Turning to “MEQLVSMGFSSDLAAEALTATGGDSIQKATDWILSHRSSPQSTATLQPKLDRFLRLHPKALAPAMGDDSSKRPNPKTQIHVAADDSNKRHKLSSSSHRQHQPLSERMRPRTLDDVVGQDHLLSPSSLLRSAVESNRLPSIVFWGPPGTGKTSIAKSLINSSKDPSLYRFVSLSAVTSGVKDVRDAVESAKRLNLEGRKRTVLFMDEVHRFNKSQQDTFLPVIEDGSILFIGATTENPSFHLITPLLSRCRVLTLNPLKPNHVETLLRRAVDDSERGLPNSVEVDDSVIEFLANNCDGDARVALNALEISATMATTRAGTDAVVSIDDAKEALQCKHLAYDKAGEQHYNLISALHKSMRGGDANAAIYWLARMLEGGEEPLYIARRLIRFASEDIGLADPSALTQAVACYQASHFLGMPECNVILAQCTAYLALAPKSIAVYRAIGAAQKVVKDSVGQNEGVPLHLRNAPTKLMKELGYGKEYIYPPSDPSSAAGQTYLPPSLLHHKFLEWPEGASGDFQDQEHRL”, the protein production result is on record as “failed”.

As for “MEQNSYVIIDETGIHARPATMLVQTASKFDSDIQLEYNGKKVNLKSIMGVMSLGVGKDAEITIYADGSDESDAIQAISDVLSKEGLTK”, the protein production entry is listed as “not failed”.

Take “MEQSVPARGTSPARRLATAARHCLVLAVASILAACTTITAVTPNEPEQRLVWPGPPLQPRIEWVREVYNQKGLGVSPGFWGRIARFVLGEKEERFIRPHGILADEQIFALVDSGAGRVHLIDLKRGTYRLLPEEGKTPMVSPIGIARDSRGAIYVTDSGTGLIHRFSDDGDSFVALDLRPLHRPTGIAFNPVTGLLYVAETGAHRIVAFDSAGKETLRIGGSGMEPGAFNFPTDLAVMADGRLLVTDSLNSRIQIFTADGKPAGSFGEAGDTPGRFTRPKGVAVDSEGHIYVCDSQQDMVQIFDETGRLLLAFGDKGSLPGQFWMPSGIHIANDMIYVSDTYNQRVQVFRYLKEEPWGQDPHTPD”: the protein production entry was “failed”.

Turning to “MERHVPEPTHTLEGWHVLHDFRLLDFARWFSAPLEAREDAWEELKGLVREWRELEEAGQGSYGIYQVVGHKADLLFLNLRPGLDPLLEAEARLSRSAFARYLGRSYSFYSVVELGSQEKPLDPESPYVKPRLTPRVPKSGYVCFYPMNKRRQGQDNWYMLPAKERASLMKAHGETGRKYQGKVMQVISGAQGLDDWEWGVDLFSEDPVQFKKIVYEMRFDEVSARYGEFGPFFVGKYLDEEALRAFLGL”, the protein production entry is “not failed”.

For “MERILLVLDDTGRGEIAFQKLKKLAEDGLRGEVYILYIREMEVPPFVPEEKELAAYHRLMTQSMKKLEGFKNQLEKAGLKVSDVSVVFGKYADRLLLVEKQIKPDLIVVGFKGGLLKRVIGGFFGKDPCEVLLKKSKASLLICR”, the protein production entry is “not failed”.

These data come from a protein production outcome set (Wang et al. 2014).
